Blank lines part the entries; values can stand above or below the binder they belong to.
Columns and labels:
[1] = target: human Claudin-6 (CLDN6) (human) (UniProt P56747); assay: FACS titration of labelled mAb on HEK293T-CLDN6-mGFP cells
[2] = target: human Claudin-6 (CLDN6) (human) (UniProt P56747); assay: FACS titration of labelled mAb on ARK2 cells (endogenous CLDN6+)
[3] = target: CLDN3/4 (endogenous on LS513 or MCF7 cells); assay: FACS titration of labelled mAb on MCF7 cells (endogenous CLDN3/4+)
[4] = target: CLDN3/4 (endogenous on LS513 or MCF7 cells); assay: FACS titration of labelled mAb on LS513 cells (endogenous CLDN3/4+)
[5] = target: human Claudin-6 (CLDN6) (human) (UniProt P56747); assay: FACS titration of labelled mAb on OVCA429 cells (endogenous CLDN6+)
[6] = target: T1, Claudin-4 (CLDN4) (human, UniProt O14493 1-209); assay: FACS titration of labelled mAb on HEK293T CLDN4-mGFP cells
T1 construct: whole, on cells; also called CLDN4-GFP; CLDN4-mGFP
T1 sequence (looked up): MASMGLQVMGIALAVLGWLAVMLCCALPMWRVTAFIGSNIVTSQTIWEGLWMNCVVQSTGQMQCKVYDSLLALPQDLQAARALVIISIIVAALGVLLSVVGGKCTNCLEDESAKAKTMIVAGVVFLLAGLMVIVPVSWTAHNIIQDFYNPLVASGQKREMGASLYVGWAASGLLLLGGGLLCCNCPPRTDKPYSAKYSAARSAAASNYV
Experimental: (§1) CLDN6 antibodies were tested from 0.32 nM to 1000 nM (serial dilution 1:5, 6 points) in a 50 μl volume with 150,000 cells system.
(§2) CLDN6-expressing cells were used in FACS assays to determine the CLDN6 antibody's ability to bind to CLDN6 on the surface of cells and to cross-react with other CLDN family members. HEK293 T cells engineered to express human CLDN6 fused to GFP, mouse CLDN6 fused to GFP, CLDN9-GFP, CLDN4-GFP, or CLDN3-GFP, or GFP alone (without CLDN6) were used as artificial models of CLDN6 expression.
(§3) For each type of cell tested and for each mAb, cells were detached from the surface of the culture flasks by EDTA (instead of trypsin) in order to protect the cell surface proteins. The detached cells were then incubated with Alexa Fluor®-labeled CLDN6 mAbs for 30 min in the dark on ice at a pre-determined concentration. […] After washing, the cells were read by a BD Accuri™ Flow Cytometer C6 to detect antibody-antigen protein binding in channel FL4H. Each antibody was tested at varied concentrations to establish a dose-fluorescence curve. […] Cross-reactivity data were obtained using a similar methodology, but with cells having a different expression profile for CLDN6, CLDN3, CLDN4 and CLDN9.

[7] = target: T2, Claudin-9 (CLDN9) (human, UniProt O95484 1-217); assay: FACS titration of labelled mAb on HEK293T CLDN9-mGFP cells
T2 construct: whole, on cells; also called CLDN9-GFP; CLDN9-mGFP
T2 sequence (looked up): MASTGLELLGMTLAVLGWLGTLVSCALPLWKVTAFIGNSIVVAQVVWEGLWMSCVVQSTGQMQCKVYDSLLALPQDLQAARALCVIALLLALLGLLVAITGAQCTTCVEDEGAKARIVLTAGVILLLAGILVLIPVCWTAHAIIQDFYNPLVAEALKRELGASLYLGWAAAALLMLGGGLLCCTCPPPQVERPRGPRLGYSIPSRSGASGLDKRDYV
Experimental: as §1, §2, §3

[8] = target: T3, mouse Claudin-6 (CLDN6) (mouse, UniProt Q9Z262 1-219); assay: FACS titration of labelled mAb on HEK293T mouse CLDN6-mGFP cells
T3 construct: whole, on cells; GFP fusion on engineered HEK293T cells; also called Mouse CLDN6; murine CLDN6
T3 sequence (looked up): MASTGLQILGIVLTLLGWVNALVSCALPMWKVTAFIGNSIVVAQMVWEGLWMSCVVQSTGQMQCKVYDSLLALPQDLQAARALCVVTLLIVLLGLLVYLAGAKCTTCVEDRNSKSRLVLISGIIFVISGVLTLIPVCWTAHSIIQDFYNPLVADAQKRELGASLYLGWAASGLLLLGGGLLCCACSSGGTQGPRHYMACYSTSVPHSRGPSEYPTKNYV
Experimental: as §1, §2, §3

[9] = target: human Claudin-6 (CLDN6) (human) (UniProt P56747); assay: flow cytometry, UMUC4 cells (positive cell line); 2nd Ab only 1,114.73
[10] = target: human Claudin-6 (CLDN6) (human) (UniProt P56747); assay: KinExA, HEK293T CLDN6-mGFP A11 cells detached by Versene, equilibrium curves 500pM, 10nM; printed 95% CI 3.41nM - 14.99nM
[11] = target: human Claudin-6 (CLDN6) (human) (UniProt P56747); assay: flow cytometry, HEK293T CLDN6-mGFP A11 cells (positive artificial OE cell line); 2nd Ab only 1,242.89
[12] = target: human Claudin-6 (CLDN6) (human) (UniProt P56747); assay: KinExA, HEK293T CLDN6-mGFP A11 cells detached by Versene, equilibrium curves 500pM, 10nM; printed 95% CI 2.10nM - 5.42nM
[13] = target: human Claudin-6 (CLDN6) (human) (UniProt P56747); assay: KinExA, HEK293T CLDN6-mGFP A11 cells detached by Versene, equilibrium curves 500pM, 10nM; printed 95% CI 1.05nM - 3.38nM
[14] = target: human Claudin-6 (CLDN6) (human) (UniProt P56747); assay: KinExA, HEK293T CLDN6-mGFP A11 cells detached by Versene, equilibrium curves 500pM, 10nM; printed 95% CI 0.56nM - 1.66nM
[15] = target: human Claudin-6 (CLDN6) (human) (UniProt P56747); assay: KinExA, HEK293T CLDN6-mGFP A11 cells detached by Versene, equilibrium curves 500pM, 10nM; printed 95% CI 1.49nM - 17.05nM
[16] = target: human Claudin-6 (CLDN6) (human) (UniProt P56747); assay: KinExA, HEK293T CLDN6-mGFP A11 cells detached by Versene, equilibrium curves 500pM, 10nM; printed 95% CI 1.07nM - 7.74nM
[17] = target: human Claudin-6 (CLDN6) (human) (UniProt P56747); assay: KinExA, HEK293T CLDN6-mGFP A11 cells detached by Versene, equilibrium curves 500pM, 10nM; printed 95% CI 1.46nM - 6.47nM

B1: AB7 (antibody, V domains shown)
VH: EVQLQQSGPELVKPGASMKISCKASGYSFTGYTMNWVKQSHGKNLEWIGLINPYNGGTNYNQKFKGKATLTVDKSSSTAYMELLSLTSEDSAVYYCARGVYDYDGFTYWGQGTLVTVSA
VL: QIVLTQSPAIMSASLGDRVTMTCTASSSVSSSYLHWYQQKPGSSPKLWIYSTSNLASGVPARFSGSGSGTSYSLTISSMEAEDAATYYCHQYHRSPPTFGSGTKLEIK
notes: full-length IgG (ExpiCHO)
EC50 [1]: 579 nM
EC50 [2]: 353 nM
EC50 [3]: 979 nM
EC50 [4]: 635 nM
EC50 [5]: 531 nM
EC50 [6]: 2090 nM
EC50 [7]: 1940 nM
EC50 [8]: 1550 nM

B2: AB8 (antibody, V domains shown)
VH: QVQLQQSGAELARPGASVKMSCKASGYTFTTYTMHWLKQRPGQGLEWIGYINPRSGYSNYNQKFKDKATLTADKSSNTAYMQLNTLTSEDSKVYYCSRGELGGFAYWGQGTLVTVSA
VL: DVVMTQTPLSLPVSLGDQASISCRSSQSLVHSDGNTYLYWYLQKPGQSPKLLIYKVSNRFSGVPDRFSGSGSGTDFTLKISRVEAEDLGVYFCSQSTHVPYTFGGGTKLEIK
notes: full-length IgG (ExpiCHO)
EC50 [1]: 1920 nM
EC50 [2]: 1140 nM
EC50 [3]: 1060 nM
EC50 [4]: 1130 nM
EC50 [5]: 1090 nM
EC50 [6]: ≥ 5000 nM
EC50 [7]: 2770 nM
EC50 [8]: ≥ 5000 nM

B4: CLDN6 ADC: AB3-7 conjugated to MC-VC-PAB-DXD (antibody, V domains shown)
VH: EVQLLESGGGLVQPGGSMRLSCAASGFTFSNYWMNWVRQAPGKGLEWVAQIRLKSDNYATHYADSVKGRFTISRDDSKNTVYLQMNSLRAEDTGVYYCNDGPPSGSWGQGTLLTVSS
VL: DIQMTQSPSSLSASVGDRVTITCRISENIYSYLAWYQQKPGKAPKLLVYNAKILVEGVPSRFSGSGSGTDFTLTISSLQPEDFGTYYCQHHYTVPWTFGQGTKLEIK
modifications: antibody conjugated to MC-VC-PAB-DXD; attachment residues not stated
flow cytometry signal at 0.1µg Ab/Sample [9]: 10800
flow cytometry signal at 1µg Ab/Sample [9]: 32600
flow cytometry signal at 0.1µg Ab/Sample [11]: 110000
Kd [12]: 3.42 nM

B6: CLDN6 ADC: AB3-7 conjugated to MC-GGFG-MMAE (D4 technology) (antibody, V domains shown)
VH: B4 VH
VL: B4 VL
modifications: antibody conjugated to MC-GGFG-MMAE, mostly 4 drugs per antibody; attachment residues not stated
flow cytometry signal at 0.1µg Ab/Sample [9]: 8790
flow cytometry signal at 1µg Ab/Sample [9]: 31600
Kd [14]: 1.01 nM

B8: CLDN6 ADC: AB3-7 conjugated to CL2A-SN38 (D4 technology) (antibody, V domains shown)
VH: B4 VH
VL: B4 VL
modifications: antibody conjugated to CL2A-SN38, mostly 4 drugs per antibody; attachment residues not stated
flow cytometry signal at 0.1µg Ab/Sample [9]: 9140
flow cytometry signal at 1µg Ab/Sample [9]: 34600
Kd [16]: 2.87 nM

B10: AB6 (antibody, V domains shown)
VH: DVQLQESGPGLVKSSQSLSLTCSVTGYSITSGYYWKWIRQFPGNKLEWMGYISYDGGINYNPSLKNRISITRDTSKNQFFLKLNSVTTEDTAKYYCARFGKGAMDYWGQGTSVTVSS
VL: AIVMFQSPSSLVVSAGEKVTMSCKSSQSLLNSRTRKNYLAWYQQKPGQSPKLLIYWASTRESGVPDRFTGSGSGTDFTLTISSVQAEDLAVYYCKQSYYLYTFGGGTKLEIK
notes: full-length IgG (ExpiCHO)
EC50 [1]: 1430 nM
EC50 [2]: 765 nM
EC50 [3]: 1140 nM
EC50 [4]: 133 nM
EC50 [5]: 394 nM
EC50 [6]: 26 nM
EC50 [7]: 2770 nM
EC50 [8]: 2220 nM

Continued, values first:

flow cytometry signal at 1µg Ab/Sample [9]: 28800
Kd [10]: 6.68 nM
B3: CLDN6 ADC: AB3-7 conjugated to MC-VC-PAB-MMAE (conventional) (antibody, V domains shown)
VH: B4 VH
VL: B4 VL
modifications: antibody conjugated to MC-VC-PAB-MMAE, heterogeneous drug load; attachment residues not stated

flow cytometry signal at 0.1µg Ab/Sample [9]: 9990
flow cytometry signal at 1µg Ab/Sample [9]: 33800
Kd [13]: 1.91 nM
B5: CLDN6 ADC: AB3-7 conjugated to CL2A-SN38 (conventional) (antibody, V domains shown)
VH: B4 VH
VL: B4 VL
modifications: antibody conjugated to CL2A-SN38, heterogeneous drug load; attachment residues not stated

flow cytometry signal at 0.1µg Ab/Sample [9]: 9450
flow cytometry signal at 1µg Ab/Sample [9]: 26900
Kd [15]: 5.34 nM
B7: CLDN6 ADC: AB3-7 conjugated to MC-VC-PAB-MMAE (D4 technology) (antibody, V domains shown)
VH: B4 VH
VL: B4 VL
modifications: antibody conjugated to MC-VC-PAB-MMAE, mostly 4 drugs per antibody; attachment residues not stated

flow cytometry signal at 0.1µg Ab/Sample [9]: 10500
flow cytometry signal at 1µg Ab/Sample [9]: 32800
flow cytometry signal at 0.1µg Ab/Sample [11]: 121000
Kd [17]: 3.01 nM
B9: CLDN6 ADC: AB3-7 conjugated to MC-GGFG-DXD (antibody, V domains shown)
VH: B4 VH
VL: B4 VL
modifications: antibody conjugated to MC-GGFG-DXD; attachment residues not stated

From patent publication US20230049752A1 (University of California, published 2023)
